Our source for the stoichiometry N and Kd values is paper PMC9537594.

Like-named read-outs stand apart in the source and are kept apart here.

Assay [1] deals with WT CA nanotubes (pre-formed tubular assemblies of wild-type HIV-1 CA, hexameric lattices) (HIV-1). The assay is described as follows: co-sedimentation; recombinant GST proteins added to pre-formed WT CA nanotubes, 30 min at 4 °C, 21,000 g for 5 min, pellets washed three times; SDS-PAGE or immunoblot. The settings on record: scale: GST-CPSF6(LCR-FG-LCR) molecules per CA hexamer. In general terms: A western blot detects proteins with antibodies after separation by electrophoresis.

Assay [2] has as its target isolated native HIV-1 cores (HIV-1). Nature of the assay: pull-down.
For assay [3] the target is unchanged. Nature of the assay: pull-down. The source holds these as a separate data set.
The target in assay [4] is Cross-linked His-CAhex: disulfide-stabilized hexamer of 6-His-CA(A14C/E45C/W184A/M185A) (HIV-1). Nature of the assay: SPR; Reichert 4-SPR; cross-linked His-CAhex immobilised on an NTA chip via the C-terminal His-tag; peptides 3.9 μM to 2 mM; 0.01 M HEPES pH 7.4, 0.15 M NaCl, 0.05% v/v Surfactant P20; simple kinetic model.

“GST-CPSF6_(261-358)(LCR-FG-LCR) (from UniProt Q16630-2 261-358) (domain or fragment)”: the stoichiometry N (as a rule, a count of units in the complex or per binding partner) in assay [1] is 2.4.
As to “GST-CPSF6261-358(LCR-FG-LCR) (domain or fragment)”, the figures for the Kd in assay [2] and in assay [3] were 890 nM and 810 nM, respectively.
In the case of “NUP153_(1409-1423) 15-mer FG peptide (from UniProt P49790 1409-1423)”, in assay [4], the Kd (in general, the constant that tells how readily two partners part at equilibrium) came out at 131000 nM.
